The test system of this data set is N#CCNC(=O)c1cnccc1C(F)(F)F. The data set is described as follows: purified protein. Conditions: 37 °C, 10 min, pH of kinetics not stated, hydration to TFNG-AM.

Usually Km stands for the substrate concentration at which the rate is half of its maximum. One may read the Vmax as the rate approached at saturating substrate.

Regarding CnhA (Ensifer adhaerens), the Km stood at 5.07 mM and the Vmax was 9.55 µmol/min/mg.
Taken in the same sequence, the figures for PnhA (Ensifer adhaerens) were 2.96 mM and 88.7 µmol/min/mg.

These data come from publication PMC8278588, “Biodegradation of flonicamid by Ensifer adhaerens CGMCC 6315 and enzymatic characterization of the nitrile hydratases involved” (Microbial Cell Factories, 2021).
